These results are taken from patent publication US20180086841A1 (Merck Sharp & Dohme, published 2018).

Experiment in all cases: flow cytometry on CHO-K1 transfectants, right sub-column
The target in one test is T1, G89A.
T1 construct: also called hCD27 G89A
T1 receptor chain: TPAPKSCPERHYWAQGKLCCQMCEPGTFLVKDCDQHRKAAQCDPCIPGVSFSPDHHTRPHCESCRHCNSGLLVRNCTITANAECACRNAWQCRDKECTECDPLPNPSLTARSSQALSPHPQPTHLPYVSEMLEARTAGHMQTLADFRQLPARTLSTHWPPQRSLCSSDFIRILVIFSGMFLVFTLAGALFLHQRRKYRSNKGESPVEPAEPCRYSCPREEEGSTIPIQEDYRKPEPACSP

The next test has as its target T2, R87A.
T2 construct: also called hCD27 R87A
T2 receptor chain: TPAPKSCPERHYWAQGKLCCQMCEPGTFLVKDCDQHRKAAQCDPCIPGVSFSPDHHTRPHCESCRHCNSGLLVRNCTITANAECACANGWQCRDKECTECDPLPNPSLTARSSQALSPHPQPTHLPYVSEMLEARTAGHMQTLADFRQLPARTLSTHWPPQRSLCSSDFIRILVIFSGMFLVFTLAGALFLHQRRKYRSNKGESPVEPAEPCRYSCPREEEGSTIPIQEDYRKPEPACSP

Another test addresses T3, W13A.
T3 construct: also called hCD27 W13A
T3 receptor chain: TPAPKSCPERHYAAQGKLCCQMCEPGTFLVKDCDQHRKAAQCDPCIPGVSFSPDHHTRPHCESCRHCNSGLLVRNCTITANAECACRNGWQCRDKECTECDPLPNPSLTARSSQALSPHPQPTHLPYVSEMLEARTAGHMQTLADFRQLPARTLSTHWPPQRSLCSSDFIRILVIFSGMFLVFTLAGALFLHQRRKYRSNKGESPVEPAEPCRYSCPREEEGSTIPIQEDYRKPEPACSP

In a further test the target is T4, K17A.
T4 construct: also called hCD27 K17A
T4 receptor chain: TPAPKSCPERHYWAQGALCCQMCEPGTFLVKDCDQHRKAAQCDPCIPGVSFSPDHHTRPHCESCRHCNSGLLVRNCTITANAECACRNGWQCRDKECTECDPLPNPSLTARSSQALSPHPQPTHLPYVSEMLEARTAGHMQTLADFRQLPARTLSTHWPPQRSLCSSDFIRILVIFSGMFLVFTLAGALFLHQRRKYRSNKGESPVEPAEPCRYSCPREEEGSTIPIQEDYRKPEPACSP

In another test the target is T5, V30A.
T5 construct: also called hCD27 V30A
T5 receptor chain: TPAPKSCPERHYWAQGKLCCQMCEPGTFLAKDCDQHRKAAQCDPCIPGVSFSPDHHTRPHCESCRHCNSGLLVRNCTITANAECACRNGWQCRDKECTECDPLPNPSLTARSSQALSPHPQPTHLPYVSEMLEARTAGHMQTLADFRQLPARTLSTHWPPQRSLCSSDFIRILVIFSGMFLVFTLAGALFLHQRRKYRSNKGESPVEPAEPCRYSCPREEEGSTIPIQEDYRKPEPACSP

A further test has as its target T6, F28A.
T6 construct: also called hCD27 F28A
T6 receptor chain: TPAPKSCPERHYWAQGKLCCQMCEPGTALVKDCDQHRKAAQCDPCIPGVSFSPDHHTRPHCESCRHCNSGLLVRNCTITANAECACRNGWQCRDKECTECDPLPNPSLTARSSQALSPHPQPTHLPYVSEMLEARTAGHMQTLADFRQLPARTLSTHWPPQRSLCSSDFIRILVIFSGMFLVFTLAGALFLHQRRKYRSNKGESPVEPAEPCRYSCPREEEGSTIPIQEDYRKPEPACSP

The next test deals with T7, D43A.
T7 construct: also called hCD27 D43A
T7 receptor chain: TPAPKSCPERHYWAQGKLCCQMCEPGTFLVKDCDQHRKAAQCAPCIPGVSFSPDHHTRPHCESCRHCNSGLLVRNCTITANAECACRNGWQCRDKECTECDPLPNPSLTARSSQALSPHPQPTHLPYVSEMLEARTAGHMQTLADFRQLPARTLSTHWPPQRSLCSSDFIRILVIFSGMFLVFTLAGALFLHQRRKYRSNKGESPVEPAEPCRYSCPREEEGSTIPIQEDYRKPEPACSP

The target of a further test is T8, D32A.
T8 construct: also called hCD27 D32A
T8 receptor chain: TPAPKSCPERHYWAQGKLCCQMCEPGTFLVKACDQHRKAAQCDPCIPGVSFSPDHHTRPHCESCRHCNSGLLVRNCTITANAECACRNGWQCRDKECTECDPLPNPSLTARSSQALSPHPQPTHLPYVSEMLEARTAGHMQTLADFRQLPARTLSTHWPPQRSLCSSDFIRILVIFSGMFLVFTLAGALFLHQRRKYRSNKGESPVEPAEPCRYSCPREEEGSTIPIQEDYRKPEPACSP

The target of the next test is T9, Q41A.
T9 construct: also called hCD27 Q41A
T9 receptor chain: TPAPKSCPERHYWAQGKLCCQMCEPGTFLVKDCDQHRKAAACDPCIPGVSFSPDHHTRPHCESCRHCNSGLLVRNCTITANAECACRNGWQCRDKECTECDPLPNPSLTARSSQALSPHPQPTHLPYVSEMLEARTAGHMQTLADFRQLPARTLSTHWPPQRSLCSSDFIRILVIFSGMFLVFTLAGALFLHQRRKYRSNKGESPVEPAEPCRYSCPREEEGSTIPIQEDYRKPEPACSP

The target in the next test is T10, E9A.
T10 construct: also called hCD27 E9A
T10 receptor chain: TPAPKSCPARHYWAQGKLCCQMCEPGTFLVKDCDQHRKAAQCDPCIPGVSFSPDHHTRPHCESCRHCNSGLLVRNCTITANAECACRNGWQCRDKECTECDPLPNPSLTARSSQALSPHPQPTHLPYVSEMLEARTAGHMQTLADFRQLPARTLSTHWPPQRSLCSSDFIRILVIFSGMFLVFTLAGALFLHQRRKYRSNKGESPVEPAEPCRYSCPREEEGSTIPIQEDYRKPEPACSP

Experimental for D32A: (§1) The hCD27 variants that were tested are listed. Amino acids correspond to the UniProt P26842-1 sequence. Amino acids 1-20 constitute the signal peptide. Binding is expressed as the geometric mean of the FITC signal, relative to antibody binding to hCD27, which was set at 100%.
(§2) The ability of several anti-hCD27 antibodies to bind to a series of hCD27 alanine mutants was determined using CHO-K1 cells, transiently transfected pCI-neo empty vector, pCI-neo.hCD27 and several pCI-neo.CD27Ala mutant constructs.
(§3) Detached cells were transferred to 96 wells round-bottomed well plates at approximately 1.2×10⁵ cells/well. After spinning down the cells, discarding the supernatants and re-suspending the cells in the residual volume, the primary antibodies were added and incubated for 30 minutes at 4° C. Cells were washed three times with DPBS/BSA 1%, followed by centrifugation, discarding of the supernatants and re-suspension in the residual volume. […] After washing once, antibody binding was detected using the HTS plate reader (FACS Canto II) and FlowJo software for data analysis. Debris, dead cells and doublets were excluded from the analysis. Binding was expressed as the geometric mean of the FITC signal, relative to antibody binding to hCD27, which was set at 100%.
Experimental for D43A: as §1, §2, §3
Experimental for E9A: as §1, §2, §3
Experimental for F28A: as §1, §2, §3
Experimental for G89A: as §1, §2, §3
Experimental for K17A: as §1, §2, §3
Experimental for Q41A: as §1, §2, §3
Experimental for R87A: as §1, §2, §3
Experimental for V30A: as §1, §2, §3
Experimental for W13A: as §1, §2, §3

B1: hCD27.131A (mouse parental 131A) (antibody, mouse IgG1, V domains shown)
VH: QIQLVQSGPELKKPGETVKISCKASGYTFTNYGMNWVKQAPGKGLKWMGWINTNTGEPTYAEEFKGRFAFSLETSATTAYLQINNLKNEDTATYFCAREGDAMDYWGQGTSVTVSS
VL: QIVLTQSPAIMSASPGEKVTMTCSASSSVSYMHWYQQKSGTSPKRWIYDTSKLASGVPARFSGSGSGTSYSLTISSMEAEDAATYYCQQWNSYPFTFGSGTKLEIK
notes: Mouse IgG1 antibody; also called mouse hCD27.131A
Turning to B1, the “binding, WT hCD27 = 100 (GM FITC)” value was 82.9% in the test with G89A; 111% in the test with R87A; 88.6% in the test with W13A; 126% with K17A; 94% with V30A; 57.1% in the test with F28A. For the same molecule, the “binding, WT hCD27 = 100 (GM FITC)” value in the test with D43A was 96.2%; with D32A, 62.1%; with Q41A, 80.5%; with E9A it was 132%.
